Experimental data reported in article PMC8509576, “Loops around the Heme Pocket Have a Critical Role in the Function and Stability of BsDyP from Bacillus subtilis” (International Journal of Molecular Sciences, 2021).
Positions count from the first letter of the chain named. Names may count otherwise.

Legend:
[1] = substrate: CCn1c(=NN=c2sc3cc(S(=O)(=O)O)ccc3n2CC)sc2cc(S(=O)(=O)O)ccc21; assay: steady-state kinetics, ABTS oxidation; format: biochemical, Bacillus subtilis; details: one kcat column shared with H2O2
Excerpt: steady-state kinetics, ABTS oxidation on BsDyP

[2] = substrate: COc1cccc(OC)c1O; assay: steady-state kinetics, oxidation followed by absorbance; format: biochemical, Bacillus subtilis
Excerpt: steady-state kinetics, oxidation followed by absorbance on BsDyP

[3] = 0.2 mM H2O2, pH 4.2, 25 °C, apparent
[4] = 0.2 mM H2O2, sodium phosphate buffer pH 3.8, 25 °C, apparent, rates per holoprotein
[5] = variant 54D6, 0.6 mM H2O2, pH 4.2, 25 °C
[6] = variant 54D6, 0.6 mM H2O2, sodium phosphate buffer pH 3.8, 25 °C
[7] = variant 1F9, 0.6 mM H2O2, pH 4.2, 25 °C
[8] = variant 1F9, 0.6 mM H2O2, sodium phosphate buffer pH 3.8, 25 °C
[9] = variant 5G5, 0.6 mM H2O2, pH 4.2, 25 °C
[10] = variant 5G5, 0.6 mM H2O2, sodium phosphate buffer pH 3.8, 25 °C
[11] = variant 3G5, 0.6 mM H2O2, pH 4.2, 25 °C
[12] = variant 3G5, 0.6 mM H2O2, sodium phosphate buffer pH 3.8, 25 °C

B1: BsDyP (Bacillus subtilis subsp. subtilis str. 168; A45M) (protein)
chain: MKPSKKDEKEEEQIVPFYGKHQAGITTAHQTYVYFAALDVTAKDKSDIITLFRNWTSLTQMLTSGKKMSAEQRNQYLPPQDTGESADLSPSNLTVTFGFGPGFFEKDGKDRFGLKSKKPKHLAALPAMPNDNLDEKQGGGDICIQVCADDEQVAFHALRNLLNQAVGTCEVRFVNKGFLSGGKNGETPRNLFGFKDGTGNQSTKDDTLMNSIVWIQSGEPDWMTGGTYMAFRKIKMFLEVWDRSSLKDQEDTFGRRKSSGAPFGQKKETDPVKLNQIPSNSHVSLAKSTGKQILRRAFSYTEGLDPKTGYMDAGLLFISFQKNPDNQFIPMLKALSAKDALNEYTQTIGSALYACPGGCKKGEYIAQRLLES
notes: Tat signal peptide (residues 1-45) deleted, A45M new start codon, plasmid pVB4 (pET-21a), no tag told; expressed in E. coli Tuner(DE3); called wild-type BsDyP; precursor 416 residues
Km [1, 3]: 0.42 ± 0.03 mM | kcat [1, 3]: 14.2 ± 1.0 s⁻¹ | kcat/Km [1, 3]: 36000 ± 3000 M⁻¹ s⁻¹ | Km [2, 4]: 0.06 ± 0.01 mM | kcat [2, 4]: 0.42 ± 0.03 s⁻¹ | kcat/Km [2, 4]: 7000 ± 1000 M⁻¹ s⁻¹

B2: BsDyP (Bacillus subtilis subsp. subtilis str. 168; A45M/K317E/S325P) (protein)
chain: B1 chain with K273E, S281P
notes: as for B1
Km [1, 5]: 0.80 ± 0.14 mM | kcat [1, 5]: 47.7 ± 2.9 s⁻¹ | kcat/Km [1, 5]: 60000 ± 11000 M⁻¹ s⁻¹ | Km [2, 6]: 0.60 ± 0.01 mM | kcat [2, 6]: 1 ± 0.1 s⁻¹ | kcat/Km [2, 6]: 1600 ± 500 M⁻¹ s⁻¹

B3: BsDyP (Bacillus subtilis subsp. subtilis str. 168; A45M/S325P) (protein)
chain: B1 chain with S281P
notes: as for B1
Km [1, 7]: 0.89 ± 0.10 mM | kcat [1, 7]: 50.4 ± 1.4 s⁻¹ | kcat/Km [1, 7]: 58000 ± 7000 M⁻¹ s⁻¹ | Km [2, 8]: 0.15 ± 0.01 mM | kcat [2, 8]: 0.83 ± 0.04 s⁻¹ | kcat/Km [2, 8]: 5500 ± 400 M⁻¹ s⁻¹

B4: BsDyP (Bacillus subtilis subsp. subtilis str. 168; A330V/A45M/K317E/S325P) (protein)
chain: B1 chain with K273E, S281P, A286V
notes: as for B1
Km [1, 9]: 1.29 ± 0.19 mM | kcat [1, 9]: 56.1 ± 1.9 s⁻¹ | kcat/Km [1, 9]: 42000 ± 6000 M⁻¹ s⁻¹ | Km [2, 10]: 0.7 ± 0.1 mM | kcat [2, 10]: 2.8 ± 0.1 s⁻¹ | kcat/Km [2, 10]: 3800 ± 200 M⁻¹ s⁻¹

B5: BsDyP (Bacillus subtilis subsp. subtilis str. 168; A330V/A45M/L166Q/T296S/V284A) (protein)
chain: B1 chain with L122Q, V240A, T252S, A286V
notes: as for B1
Km [1, 11]: 1.37 ± 0.25 mM | kcat [1, 11]: 28.1 ± 2.1 s⁻¹ | kcat/Km [1, 11]: 25000 ± 5000 M⁻¹ s⁻¹ | Km [2, 12]: 0.09 ± 0.01 mM | kcat [2, 12]: 0.8 ± 0.1 s⁻¹ | kcat/Km [2, 12]: 9000 ± 1000 M⁻¹ s⁻¹
